Residue numbers refer to the chain shown, from its start. Names and notes keep the numbering of the source.

Data set [1] deals with T1, CocE (Rhodococcus sp., UniProt Q9L9D7).
T1 construct: 6xHis (C); made in house; host or cells: E. coli BL-21 Gold (DE3), pET-22b(+)
T1 sequence (Q9L9D7 1-574): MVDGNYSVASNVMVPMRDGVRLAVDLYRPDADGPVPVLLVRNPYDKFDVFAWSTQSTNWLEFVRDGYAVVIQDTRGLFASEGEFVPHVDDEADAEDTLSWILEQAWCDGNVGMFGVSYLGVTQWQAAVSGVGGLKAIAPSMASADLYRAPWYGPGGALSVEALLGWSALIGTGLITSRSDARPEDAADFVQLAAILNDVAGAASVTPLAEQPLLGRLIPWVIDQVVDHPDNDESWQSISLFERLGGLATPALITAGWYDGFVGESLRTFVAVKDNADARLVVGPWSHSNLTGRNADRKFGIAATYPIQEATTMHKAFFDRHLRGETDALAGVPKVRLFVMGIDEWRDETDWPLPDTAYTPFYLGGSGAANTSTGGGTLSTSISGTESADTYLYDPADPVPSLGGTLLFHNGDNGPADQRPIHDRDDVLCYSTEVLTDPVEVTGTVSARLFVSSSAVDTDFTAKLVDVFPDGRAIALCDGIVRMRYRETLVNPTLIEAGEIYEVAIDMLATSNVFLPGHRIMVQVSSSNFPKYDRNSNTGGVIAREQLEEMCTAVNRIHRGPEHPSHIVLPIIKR
The format is biochemical, Rhodococcus sp. MB 1. The following applies: for stabilization of CocE at 37° C., lower concentrations: cocaine lower than 62.5 μM, others below 125 μM. On the procedure:
Further spectrophotometric analysis of cocaine stabilization was performed, by analyzing the ability of CocE to cleave 4-nitrophenyl acetate, after preincubation at 37° C. for various times, in the presence of various concentrations of cocaine.

For data set [2], the target named is T1, CocE. The format is biochemical, Rhodococcus sp. MB 1. Conditions: cocaine: 62.5 and 125 μM; benzoic acid: higher concentrations. On the procedure:
CocE is also able to cleave another substrate, 4-nitrophenyl acetate (FIG. 3). Cleavage is monitored by detection of the appearance of the 4-nitrophenol reaction product, which absorbs at 400 nm.
Further spectrophotometric analysis of cocaine stabilization was performed, by analyzing the ability of CocE to cleave 4-nitrophenyl acetate, after preincubation at 37° C. for various times, in the presence of various concentrations of cocaine. […] However, preincubation of CocE at the higher concentrations for various times at 37° C. indicated the enzyme was stabilized enough to be able to cleave the 4-nitrophenyl substrate (FIG. 5).

Data set [3] has as its target T2, CocE WT (Rhodococcus sp., UniProt Q9L9D7).
T2 construct: 6xHis (C); made in house; host or cells: E. coli BL-21 Gold (DE3), pET-22b(+)
T2 sequence (Q9L9D7 1-574): T1 sequence (Q9L9D7 1-574)
As to the kind of experiment: Inhibition of CocE WT aggregate formation, non-denaturing gel, 1 hour at 37° C. More on the design: species or system Rhodococcus sp. MB 1. The source says: To further study CocE stabilization with small molecules, other inhibitors of the CocE cleavage reaction were considered.

The nature of data set [4]: Michaelis-Menten kinetics of cocaine hydrolysis (absorbance at 240 nm). The format is biochemical. On the procedure: (§1) The initial rates (of decay) were determined by following the change in the intrinsic absorbance of cocaine at 240 nm (6700 M^1 cm^1)(Xie et al., 1999) using a SpectraMax Plus 384 UV plate reader (Molecular Devices, Sunnyvale, Calif.) using SOFTmax Pro software (Version 3.1.2). The reaction was initiated by adding 100 μL of a 2× enzyme solution (100 mM phosphate buffer, pH 7.4 and 300 mM NaCl) to 100 μL of a 2× cocaine solution (50 μg/mL enzyme, 100 mM Phosphate Buffer, pH 7.4 and 300 mM NaCl). All assays were performed with 100 μM DTT unless indicated otherwise. Final cocaine concentrations were as follows: 125, 62.5, 31.25, 15.63, 7.81, 3.91, 1.95, and 0.977 μM. Vmax and Km values were calculated using Prism (GraphPad Software, San Diego). For stability measurements, wild type and mutant enzymes were diluted to 2× concentration and incubated at 37° C. for the times indicated. At the end of each time point, an aliquot was removed and kinetic behavior was observed as outlined above.
(§2) In vitro kinetic assays. […] Initial rates were then used to determine Michaelis-Menten parameters. To assess thermal stability, enzyme preparations were preincubated at 37° C. for various lengths of time, prior to measurement of residual activities (Table 1 and FIG. 23).
Determination of Catalytic Efficiency. To determine the catalytic activity a spectrophometric assay was performed. Samples of L169K/G173Q CocE were added to a 96-well UV permeable plate containing increasing cocaine concentrations (0.5, 2.5, 5, 12.5, 25, 50, 100, and 150 μM) to give a final concentration of 10 ng/ml CocE in a final volume of 200 μl. The change in absorbance at 240 nm was measured over 20 minutes, with readings every 10 seconds, by a SpectraMax Plus 384 UV plate reader (Molecular Devices, Sunnyvale, Calif.) using SOFTmax Pro software (Version 3.1.2). The change in absorbance was converted to the change in concentration and furthermore the rate of decay per mole enzyme is determined (Kcat). Kcat and Km of the enzyme are determined using Prism (GraphPad software, San Diego).

How the values of data set [5] were obtained:
Analysis of CocE action on cocaine cleavage is performed by utilizing the spectroscopic properties of cocaine, which maximally absorbs light at a 240 nm wavelength. CocE activity is measured by monitoring for a decrease in signal at A240, using various concentrations of cocaine, and determining the initial rate of the decrease. From these values the Vmax of the enzyme can be determined. By pre-incubating the enzyme at 37° C. for various times before monitoring for activity, the half life of CocE at 37° C. can be calculated.
as §1, with “Final cocaine concentrations were as follows: 125, 62.5, 31.25, 15.63, 7.81, 3.91, 1.95, and 0.977 μM. Vmax and Km values were calculated using Prism (GraphPad Software, San Diego).” left out
as §2

In data set [6] the test system is cocaine-induced lethality. The data set is described as follows: In vivo potency of protection against cocaine-induced lethality. More on the design: species or system NIH-Swiss mice.
Data set [7] relates to cocaine-induced lethality. The data set is described as follows: In vivo duration of protection against cocaine-induced lethality. More on the design: species or system NIH-Swiss mice. As to the method: In vivo protection against cocaine lethality. Male NIH-Swiss mice (25-32 g) were obtained from Harlan Inc. (Indianapolis, Ind.) and were housed in groups of 6 mice per cage. All mice were allowed ad libitum access to food and water, and were maintained on a 12-h light-dark cycle with lights on at 06.30 AM in a room kept at a temperature of 21-22° C. Experiments were performed in accordance with the Guide for the Care and Use of Laboratory Animals as adopted and promulgated by the National Institutes of Health. The experimental protocols were approved by the University Committee on the Use and Care of Animals at the University of Michigan.
Cocaine-induced toxicity was characterized by the occurrence of lethality, as defined by the cessation of observed movement and respiration. Mice were placed individually in Plexiglas observation chambers (16×28×20 cm high) to be habituated for 15 min before drug administration. Following intra-peritoneal (i.p.) cocaine administration, the mouse was immediately placed individually in the same chamber for observation. The presence or absence of lethality was recorded for 60 min following cocaine administration. The mouse was placed in a small restraint chamber (Outer tube diameter: 30 mm; Inner tube diameter: 24 mm) that left the tail exposed. The tail was cleansed with an alcohol wipe and a 30G1/2 precision glide needle (Fisher Scientific, Pittsburgh, Pa.) was inserted into one of the side veins for infusion. The i.v. injection volume of CocE or CocE mutant was 0.2 mL per mouse. Sterile gauze and pressure were applied to the injection site to staunch the bleeding.
Lethality was monitored following injection at 1, 5, 10, or 30 min, or 1, 2, 3, 4, 5 hours after enzyme administration. Each treatment used 8 mice to assess the percent of lethality (i.e., protection) in mice pretreated with a single dose of an esterase at a single time point.
These values were used to compare the degree of rightward shifts of cocaine's dose-response curve in the absence or presence of the enzyme pretreatment. In the time course study, a time point for duration of protection (i.e., 50% of lethality) was estimated by using each time course curve crossing 50% occurrence of lethality.
Evaluation of in vivo half life. CocE is administered IV to the tail vein in a volume of 0.2 ml. Animals are challenged with 180 mg/kg cocaine delivered intraperitoneally at a given time after CocE administration.

[8] abbreviates: 1 mg i.v., cocaine 180 mg/kg i.p.

For `O=C(O)c1ccccc1` [benzoic acid], the “stabilization of CocE at 37° C., higher concentrations” value in data set [1] (cocaine 62.5 and 125 μM, benzoic acid above 125 μM) is reported as “stabilize”. In data set [1], the “stabilization of CocE at 37° C., lower concentrations” value (“stabilization … lower concentrations” for short) is reported as “did not reveal any stabilization”. Besides, in data set [2], the “inhibition of 4-nitrophenyl acetate cleavage” value was “inhibit”. Also, the “inhibition of formation of CocE protein aggregates” value in data set [3] was “inhibited the formation of aggregates”.

On to `COC(=O)[C@@H]1[C@H]2CC[C@@H](C[C@@H]1O)N2C` [ecgonine methyl ester], for which the “stabilization … lower concentrations” value in data set [1] was “did not reveal any stabilization”. The “inhibition of formation of CocE protein aggregates” value in data set [3] is reported as “could not”.

Take `CC(=O)[O-].[Na+]` [sodium acetate]: the “stabilization … lower concentrations” value in data set [1] is reported as “did not reveal any stabilization”. Moreover, the “inhibition of formation of CocE protein aggregates” value in data set [3] is “could not”.

B1: T172R/G173Q: CocE double mutant (protein, listed as Rhodococcus sp.)
chain: T1 sequence (Q9L9D7 1-574) with T172R, G173Q
B1: the “Kcat(mol · s^−1 · mol^−1)” value in data set [4] (cocaine) was 2247 mol · s^−1 · mol^−1. Further, in data set [5], the “Stability @ 37 (t1/2)” value was roughly 5.43 h, the “half-life / τinact of activity at 37° C.” value is 5.43 h and the “t1/2” value worked out at 5.43 h. Moreover, in data set [5] (37° C., after greater than 8 hr / t=10 hours), the “plateau of catalytic activity, percent of maximal” value is on record as “approximately 35%”. The “extension of in vitro τinact at 37° C.” value in data set [5] (from 10 min) is “approximately 27 fold”. In data set [6] (i.v. pretreatment 1 min prior to i.p. cocaine), the “protection against cocaine-induced lethality” value is on record as “protected”. Besides, the “LT50, pretreatment time to 50% lethality” value in data set [7] (setting [8]) is on record as “up to 4.5 hr”. For the same molecule, in data set [7] (1 mg i.v., cocaine 180 mg/kg i.p., listed as T172R-G173Q), the “LT50, pretreatment time to 50% lethality” value is roughly 4.5 h. Besides, the “extension of pretreatment duration with 50% protection” value in data set [7] (mouse, in vivo) is “greater than 20 fold”.

B2: G173Q: CocE mutant (protein, listed as Rhodococcus sp.)
chain: T1 sequence (Q9L9D7 1-574) with G173Q
B2: in data set [5], the “Stability @ 37 (t1/2)” value is roughly 0.417 h.

B3: L169K/G173Q: CocE double mutant, SEQ ID NO:1 with substitutions L169K and G173Q (protein, listed as Rhodococcus sp.)
chain: T1 sequence (Q9L9D7 1-574) with L169K, G173Q
With B3, the “turnover per molecule of enzyme” value in data set [4] is “approximately 6000 molecules of cocaine per minute”. In data set [6] (i.v., cocaine i.p. 1 min later), the “lowest dose maintaining some degree of protection” value came out at 0.01 mg and the “protection from increasing lethal doses of cocaine” value is recorded as “dose-dependently protected”. Further, the “time for which 50% of mice were protected from death” value in data set [7] (setting [8]) was “up to 7.5 hrs”.

B4: L169K/G173Q/T172R: CocE triple mutant (protein)
chain: T1 sequence (Q9L9D7 1-574) with L169K, T172R, G173Q
For B4, the “enhanced stabilization at 37° C.” value in data set [5] (data not shown) was “did not display an enhanced stabilization”.

Source of the values: patent US9526786B2, “Thermostabilization of proteins” (The Trustee of Columbia University in the City of New York, priority 2007, dated 2016).
